The test system of series [1] is HeLa Kyoto. Put plainly: solubility in G1/S (NP-40 vs SDS abundance) (log2 ratio); higher = more soluble. The following applies: cell cycle stage: G1/S.
Series [2] has as its system HeLa Kyoto. Put plainly: melting temperature (median over replicates), in situ; higher = more thermally stable.
The subject of series [3] is HeLa Kyoto. The series is described as follows: solubility change mitosis vs G1/S (difference of NP-40 vs SDS log2 ratios) (log2 ratio difference); higher = more soluble in mitosis.
The subject of series [4] is HeLa Kyoto. Put plainly: thermal stability score vs G1/S (z-score of summed log2 fold changes over temperatures); higher = more thermally stable than in G1/S.
Setting [5] is: cell cycle stage: early G1 (4.5 h after nocodazole release).

The text below walks through data of the supplement of paper PMC5998384.
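Throughout, for melting temperature (median over replicates), in situ: HeLa Kyoto cells synchronized by double thymidine or nocodazole block, proteins quantified by TMT10plex mass spectrometry, three independent biological replicates.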
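Throughout, for solubility change mitosis vs G1/S (difference of NP-40 vs SDS log2 ratios): synchronized HeLa Kyoto cells (double thymidine block for G1/S, nocodazole release for mitosis), protein amounts in NP-40 versus SDS lysates quantified by mass spectrometry, three biological replicates.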
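Throughout, for solubility in G1/S (NP-40 vs SDS abundance): HeLa Kyoto cells arrested at G1/S by double thymidine block, proteins quantified by TMT10plex mass spectrometry in mild NP-40 versus SDS extracts, three biological replicates.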
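Throughout, for thermal stability score vs G1/S (z-score of summed log2 fold changes over temperatures): synchronized HeLa Kyoto cells, proteins quantified by TMT10plex mass spectrometry, three biological replicates, mitosis taken 0.5 h after nocodazole release, G1/S directly after double thymidine block.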

In the case of “MTKREAEELIEIEIDGTEKAECTEESIVEQTYAPAECVSQAIDINEPIGNLKKLLEPRLQCSLDAHEICLQDIQLDPERSLFDQGVKTDGTVQLSVQVISYQGIEPKLNILEIVKPADTVEVVIDPDAHHAESEAHLVEEAQVITLDGTKHITTISDETSEQVTRWAAALEGYRKEQERLGIPYDPIQWSTDQVLHWVVWVMKEFSMTDIDLTTLNISGRELCSLNQEDFFQRVPRGEILWSHLELLRKYVLASQEQQMNEIVTIDQPVQIIPASVQSATPTTIKVINSSAKAAKVQRAPRISGEDRSSPGNRTGNNGQIQLWQFLLELLTDKDARDCISWVGDEGEFKLNQPELVAQKWGQRKNKPTMNYEKLSRALRYYYDGDMICKVQGKRFVYKFVCDLKTLIGYSAAELNRLVTECEQKKLAKMQLHGIAQPVTAVALATASLQTEKDN [GABPA]”, the “solubility in G1/S (log2)” value with HeLa Kyoto [1] amounted to 0.0182. The figures for the melting temperature with HeLa Kyoto [2] (cell cycle stage: G1/S) and in the series with HeLa Kyoto [2] (cell cycle stage: mitosis) were 48 °C and 49.9 °C, respectively. Moreover, the “solubility change mitosis (log2)” value in the series on HeLa Kyoto [3] is -0.178. The thermal stability score was 0.986 in the series with HeLa Kyoto [4] (setting [5]) and 1.79 in the series with HeLa Kyoto [4] (cell cycle stage: mitosis).

As to “MVPRLLLRAWPRGPAVGPGAPSRPLSAGSGPGQYLQRSIVPTMHYQDSLPRLPIPKLEDTIRRYLSAQKPLLNDGQFRKTEQFCKSFENGIGKELHEQLVALDKQNKHTSYISGPWFDMYLSARDSVVLNFNPFMAFNPDPKSEYNDQLTRATNMTVSAIRFLKTLRAGLLEPEVFHLNPAKSDTITFKRLIRFVPSSLSWYGAYLVNAYPLDMSQYFRLFNSTRLPKPSRDELFTDDKARHLLVLRKGNFYIFDVLDQDGNIVSPSEIQAHLKYILSDSSPAPEFPLAYLTSENRDIWAELRQKLMSSGNEESLRKVDSAVFCLCLDDFPIKDLVHLSHNMLHGDGTNRWFDKSFNLIIAKDGSTAVHFEHSWGDGVAVLRFFNEVFKDSTQTPAVTPQSQPATTDSTVTVQKLNFELTDALKTGITAAKEKFDATMKTLTIDCVQFQRGGKEFLKKQKLSPDAVAQLAFQMAFLRQYGQTVATYESCSTAAFKHGRTETIRPASVYTKRCSEAFVREPSRHSAGELQQMMVECSKYHGQLTKEAAMGQGFDRHLFALRHLAAAKGIILPELYLDPAYGQINHNVLSTSTLSSPAVNLGGFAPVVSDGFGVGYAVHDNWIGCNVSSYPGRNAREFLQCVEKALEDMFDALEGKSIKS [CPT2]”, the “solubility in G1/S (log2)” value in the series on HeLa Kyoto [1] was 0.115. Besides, the melting temperature in the series with HeLa Kyoto [2] (cell cycle stage: G1/S) and with HeLa Kyoto [2] (cell cycle stage: mitosis) was 50 °C in each case. The “solubility change mitosis (log2)” value in the series with HeLa Kyoto [3] is -0.135. For the same substance, the figures for the thermal stability score in the series with HeLa Kyoto [4] (setting [5]) and in the series with HeLa Kyoto [4] (cell cycle stage: mitosis) were -0.368 and 0.841, respectively.

For the substance “MTAEEMKATESGAQSAPLPMEGVDISPKQDEGVLKVIKREGTGTEMPMIGDRVFVHYTGWLLDGTKFDSSLDRKDKFSFDLGKGEVIKAWDIAIATMKVGEVCHITCKPEYAYGSAGSPPKIPPNATLVFEVELFEFKGEDLTEEEDGGIIRRIQTRGEGYAKPNEGAIVEVALEGYYKDKLFDQRELRFEIGEGENLDLPYGLERAIQRMEKGEHSIVYLKPSYAFGSVGKEKFQIPPNAELKYELHLKSFEKAKESWEMNSEEKLEQSTIVKERGTVYFKEGKYKQALLQYKKIVSWLEYESSFSNEEAQKAQALRLASHLNLAMCHLKLQAFSAAIESCNKALELDSNNEKGLFRRGEAHLAVNDFELARADFQKVLQLYPNNKAAKTQLAVCQQRIRRQLAREKKLYANMFERLAEEENKAKAEASSGDHPTDTEMKEEQKSNTAGSQSQVETEA [FKBP4]”, the “solubility in G1/S (log2)” value in the series with HeLa Kyoto [1] is 0.197. In addition, the results for the melting temperature in the series with HeLa Kyoto [2] (cell cycle stage: G1/S) and in the series with HeLa Kyoto [2] (cell cycle stage: mitosis) were 50 °C and 50.1 °C, respectively. Besides, the “solubility change mitosis (log2)” value in the series on HeLa Kyoto [3] was -0.129. Further, the thermal stability score in the series on HeLa Kyoto [4] (setting [5]) was 1.07; in the series with HeLa Kyoto [4] (cell cycle stage: mitosis), 1.03.

For the substance “MVRKKNPPLRNVASEGEGQILEPIGTESKVSGKNKEFSADQMSENTDQSDAAELNHKEEHSLHVQDPSSSSKKDLKSAVLSEKAGFNYESPSKGGNFPSFPHDEVTDRNMLAFSSPAAGGVCEPLKSPQRAEADDPQDMACTPSGDSLETKEDQKMSPKATEETGQAQSGQANCQGLSPVSVASKNPQVPSDGGVRLNKSKTDLLVNDNPDPAPLSPELQDFKCNICGYGYYGNDPTDLIKHFRKYHLGLHNRTRQDAELDSKILALHNMVQFSHSKDFQKVNRSVFSGVLQDINSSRPVLLNGTYDVQVTSGGTFIGIGRKTPDCQGNTKYFRCKFCNFTYMGNSSTELEQHFLQTHPNKIKASLPSSEVAKPSEKNSNKSIPALQSSDSGDLGKWQDKITVKAGDDTPVGYSVPIKPLDSSRQNGTEATSYYWCKFCSFSCESSSSLKLLEHYGKQHGAVQSGGLNPELNDKLSRGSVINQNDLAKSSEGETMTKTDKSSSGAKKKDFSSKGAEDNMVTSYNCQFCDFRYSKSHGPDVIVVGPLLRHYQQLHNIHKCTIKHCPFCPRGLCSPEKHLGEITYPFACRKSNCSHCALLLLHLSPGAAGSSRVKHQCHQCSFTTPDVDVLLFHYESVHESQASDVKQEANHLQGSDGQQSVKESKEHSCTKCDFITQVEEEISRHYRRAHSCYKCRQCSFTAADTQSLLEHFNTVHCQEQDITTANGEEDGHAISTIKEEPKIDFRVYNLLTPDSKMGEPVSESVVKREKLEEKDGLKEKVWTESSSDDLRNVTWRGADILRGSPSYTQASLGLLTPVSGTQEQTKTLRDSPNVEAAHLARPIYGLAVETKGFLQGAPAGGEKSGALPQQYPASGENKSKDESQSLLRRRRGSGVFCANCLTTKTSLWRKNANGGYVCNACGLYQKLHSTPRPLNIIKQNNGEQIIRRRTRKRLNPEALQAEQLNKQQRGSNEEQVNGSPLERRSEDHLTESHQREIPLPSLSKYEAQGSLTKSHSAQQPVLVSQTLDIHKRMQPLHIQIKSPQESTGDPGNSSSVSEGKGSSERGSPIEKYMRPAKHPNYSPPGSPIEKYQYPLFGLPFVHNDFQSEADWLRFWSKYKLSVPGNPHYLSHVPGLPNPCQNYVPYPTFNLPPHFSAVGSDNDIPLDLAIKHSRPGPTANGASKEKTKAPPNVKNEGPLNVVKTEKVDRSTQDELSTKCVHCGIVFLDEVMYALHMSCHGDSGPFQCSICQHLCTDKYDFTTHIQRGLHRNNAQVEKNGKPKE [TRPS1]”, the “solubility in G1/S (log2)” value with HeLa Kyoto [1] came to 0.00718. In addition, the melting temperature in the series with HeLa Kyoto [2] (cell cycle stage: G1/S) came out at 51.1 °C; in the series on HeLa Kyoto [2] (cell cycle stage: mitosis), 51.9 °C. The “solubility change mitosis (log2)” value in the series on HeLa Kyoto [3] was -0.0534. Also, the thermal stability score in the series with HeLa Kyoto [4] (setting [5]) is 0.487; in the series with HeLa Kyoto [4] (cell cycle stage: mitosis), 0.962.

For “MEMTEMTGVSLKRGALVVEDNDSGVPVEETKKQKLSECSLTKGQDGLQNDFLSISEDVPRPPDTVSTGKGGKNSEAQLEDEEEEEEDGLSEECEEEESESFADMMKHGLTEADVGITKFVSSHQGFSGILKERYSDFVVHEIGKDGRISHLNDLSIPVDEEDPSEDIFTVLTAEEKQRLEELQLFKNKETSVAIEVIEDTKEKRTIIHQAIKSLFPGLETKTEDREGKKYIVAYHAAGKKALANPRKHSWPKSRGSYCHFVLYKENKDTMDAINVLSKYLRVKPNIFSYMGTKDKRAITVQEIAVLKITAQRLAHLNKCLMNFKLGNFSYQKNPLKLGELQGNHFTVVLRNITGTDDQVQQAMNSLKEIGFINYYGMQRFGTTAVPTYQVGRAILQNSWTEVMDLILKPRSGAEKGYLVKCREEWAKTKDPTAALRKLPVKRCVEGQLLRGLSKYGMKNIVSAFGIIPRNNRLMYIHSYQSYVWNNMVSKRIEDYGLKPVPGDLVLKGATATYIEEDDVNNYSIHDVVMPLPGFDVIYPKHKIQEAYREMLTADNLDIDNMRHKIRDYSLSGAYRKIIIRPQNVSWEVVAYDDPKIPLFNTDVDNLEGKTPPVFASEGKYRALKMDFSLPPSTYATMAIREVLKMDTSIKNQTQLNTTWLR [PUS7]”, the “solubility in G1/S (log2)” value with HeLa Kyoto [1] was 0.055. The melting temperature with HeLa Kyoto [2] (cell cycle stage: G1/S) was determined as 52.3 °C; in the series on HeLa Kyoto [2] (cell cycle stage: mitosis) it was 52.2 °C. Further, in the series with HeLa Kyoto [3], the “solubility change mitosis (log2)” value is -0.141. Also, the thermal stability score with HeLa Kyoto [4] (setting [5]) is 0.213; with HeLa Kyoto [4] (cell cycle stage: mitosis), 0.4.

Regarding ARHGAP35, in the series with HeLa Kyoto [1], the “solubility in G1/S (log2)” value is -0.0977. Further, the melting temperature with HeLa Kyoto [2] (cell cycle stage: G1/S) amounted to 48.6 °C; in the series on HeLa Kyoto [2] (cell cycle stage: mitosis) it was 49.4 °C. Besides, the “solubility change mitosis (log2)” value in the series on HeLa Kyoto [3] was -0.124. Further, the thermal stability score is 1.69 in the series on HeLa Kyoto [4] (setting [5]) and 3.46 in the series with HeLa Kyoto [4] (cell cycle stage: mitosis).
